Experiments:
[1] = test system: O=[N+]([O-])c1ccc(OP(=O)(O)Oc2ccc([N+](=O)[O-])cc2)cc1; experiment: OD410 nitrophenol release, microplate; format: biochemical, Mycoplasmoides pneumoniae; settings: MnCl2 0.1 mM, 100 mM Tris-HCl pH 8.3, 10 mM NaCl, 37 °C
Excerpt: OD410 nitrophenol release, microplate on MPN549 (PdeM)

[2] = molecular target: T1, KtrC (MPN461) (Mycoplasmoides pneumoniae, UniProt P75322); experiment: pull-down on c-di-AMP agarose, elution with free c-di-AMP, MS identification; format: binding; settings: labelled compound: immobilised 2'-AHC-c-di-AMP agarose, eluted with 1 mM free c-di-AMP; cell extract; pH 7.5, 4 °C
T1 construct: gene MPN_461; native protein from M. pneumoniae cell extract, identified by mass spectrometry
T1 sequence (P75322 1-231): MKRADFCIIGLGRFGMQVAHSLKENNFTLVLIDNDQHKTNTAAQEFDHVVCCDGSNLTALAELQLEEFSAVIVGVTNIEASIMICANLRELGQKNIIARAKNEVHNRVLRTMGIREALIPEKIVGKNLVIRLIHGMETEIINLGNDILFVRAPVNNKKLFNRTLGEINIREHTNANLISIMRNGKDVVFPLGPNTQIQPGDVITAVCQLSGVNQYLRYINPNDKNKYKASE

[3] = substrate: O=[N+]([O-])c1ccc(OP(=O)(O)Oc2ccc([N+](=O)[O-])cc2)cc1; experiment: OD410 nitrophenol release, microplate; format: biochemical, Mycoplasmoides pneumoniae; settings: MnCl2 0.1 mM, 100 mM Tris-HCl pH 8.3, 10 mM NaCl, 37 °C; remark: listed apart in the source
Excerpt: OD410 nitrophenol release, microplate on MPN140 (NrnA)

[4] = substrate: O=[N+]([O-])c1ccc(OP(=O)(O)Oc2ccc([N+](=O)[O-])cc2)cc1; experiment: OD410 nitrophenol release, microplate; format: biochemical, Bacillus subtilis; settings: MnCl2 0.1 mM, 100 mM Tris-HCl pH 8.3, 10 mM NaCl, 37 °C
Excerpt: OD410 nitrophenol release, microplate on GdpP

MPN549 (PdeM) (Mycoplasmoides pneumoniae M129)
Km [1]: 600 µM

Nc1ncnc2c1ncn2[C@@H]1O[C@@H]2COP(=O)(O)O[C@H]3[C@@H](O)[C@H](n4cnc5c(N)ncnc54)O[C@@H]3COP(=O)(O)O[C@H]2[C@H]1O [c-di-AMP]
pull-down on c-di-AMP agarose, elution with free c-di-AMP, MS identification [2]: c-di-AMP-binding proteins were eluted with free c-di-AMP

B1: MPN140 (NrnA) (Mycoplasmoides pneumoniae M129) (protein)
chain: MNSQVHRKGSIAEAVSAIQAHDKIVIFHHIRPDGDCLGAQHGLARLIQTNFPHKQVFCVGDPKHNFPWLEMVFTPKEQITPELMQQALAVIVDANYKERIECRDLLDQNQFKAVLRIDHHPNEDDLNTTHNFVDASYIAAAEQVVDLAVQAKWKLSPPAATALYLGIYTDSNRFLYSNTSWRTLYLGSMLYRAQANIAKIHDELNHTSLKDIQFKQYVFKNFQTFQNVIYFVADKKFQKKLKVTPLECARVNILANIEQFHIWLFFIEEGKNHYRVEFRSNGINVREVALKYGGGGHIQASGAVLKSKRDIIRVVQDCQKQIAV
Km [3]: 1600 µM
kcat [3]: 3.67e-06 s⁻¹

B2: GdpP (Bacillus subtilis subsp. subtilis str. 168) (protein)
chain: PIGIMLFNDQYYIEWANPFLSSCFNESTLVGRSLYDTCESVVPLIKQEVESETVTLNDRKFRVVIKRDERLLYFFDVTEQIQIEKLYENERTVLAYIFLDNYDDVTQGLDDQTRSTMNSQVTSLLNAWAQEYGIFLKRTSSERFIAVLNEHILTELENSKFSILDEVREKTSFDGVALTLSVGVGASVSSLKELGDLAQSSLDLALGRGGDQVAIKLPNGKVKFYGGKTNPMEKRTRVRARVISHALKEIVTESSNVIIMGHKFPDMDSIGAAIGILKVAQANNKDGFIVIDPNQIGSSVQRLIGEIKKYEELWSRFITPEEAMEISNDDTLLVIVDTHKPSLVMEERLVNKIEHIVVIDHHRRGEEFIRDPLLVYMEPYASSTAELVTELLEYQPKRLKINMIEATALLAGIIVDTKSFSLRTGSRTFDAASYLRAKGADTVLVQKFLKETVDSYIKRAKLIQHTVLYKDNIAIASLPENEEEYFDQVLIAQAADSLLSMSEVEASFAVARRDEQTVCISARSLGEVNVQIIMEALEGGGHLTNAATQLSGISVSEALERLKHAIDEYFEGGVQR
notes: cytoplasmic portion, residues 84-659, C-terminal Strep-tag, expressed in E. coli BL21(DE3), plasmid pGP2720
Km [4]: 1450 µM
